These results are taken from patent US20260176619A1 (published 2026).

For this experiment, the target named is T1, His-tagged recombinant human CD45 (human, UniProt P08575 26-577, limits assumed).
T1 construct: His-tagged
T1 sequence (looked up): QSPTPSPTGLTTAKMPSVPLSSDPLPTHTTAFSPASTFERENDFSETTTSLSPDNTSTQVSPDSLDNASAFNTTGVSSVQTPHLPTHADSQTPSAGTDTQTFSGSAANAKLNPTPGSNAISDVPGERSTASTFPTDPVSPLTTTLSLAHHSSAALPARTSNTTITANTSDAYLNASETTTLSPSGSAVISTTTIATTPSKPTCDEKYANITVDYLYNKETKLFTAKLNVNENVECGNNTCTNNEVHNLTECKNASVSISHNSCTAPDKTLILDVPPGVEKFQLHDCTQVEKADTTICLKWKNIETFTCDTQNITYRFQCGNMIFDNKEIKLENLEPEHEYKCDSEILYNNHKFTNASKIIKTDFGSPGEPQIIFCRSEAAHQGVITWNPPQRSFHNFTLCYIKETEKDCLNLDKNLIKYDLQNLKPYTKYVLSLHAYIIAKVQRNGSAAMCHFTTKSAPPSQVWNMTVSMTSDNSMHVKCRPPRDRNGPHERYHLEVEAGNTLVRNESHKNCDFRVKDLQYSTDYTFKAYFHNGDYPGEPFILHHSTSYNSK
As to the kind of experiment: assay not given; the affinity ELISA is described in Example 22. Here is the method: 20 nM His-tagged recombinant human receptors: CD117, CD45, CD46, CD133, and CD135, were immobilized onto nickel coated plates overnight at 4° C. in TBS buffer. Non-bound receptors were removed with three-washes of 1×TBS-T buffer. Blocking buffer was added to each well and incubated plate for 0.5 hr at room temperature with continuous shaking of 550 rpm. The plate was washed with 1X TBS-T. Serial dilutions of candidate ligands with concentrations ranged from 2 pM to 1 μM were added to each well and incubated for 1 hr at room temperature with continuous shaking of 550 rpm. After three washes of 1X TBS-T, horseradish peroxidase (HRP) enzyme liked FLAG antibody solution (1:200) was added to each well for 1 hr at room temperature with continuous shaking of 550 rpm. Chemiluminescent substrate was added and HRP enzymic activity was measured using an […]. The data was analyzed by non-linear regression to estimate binding affinity.
A general note: In an ELISA, binding on a coated surface is turned into a signal by an enzyme label.

B1: L122-CD45 scFv (scFv)
scFv: EVKLLESGGGLVQPGGSLKLSCAASGFDFSRYWMSWVRQAPGKGLEWIGEINPTSSTINFTPSLKDKVFISRDNAKNTLYLQMSKVRSEDTALYYCARGNYYRYGDAMDYWGQGTSVTVSSAKGGGGSGGGGSGGGGSGGGGSDIALTQSPASLAVSLGQRATISCRASKSVSTSGYSYLHWYQQKPGQPPKLLIYLASNLESGVPARFSGSGSGTDFTLNIHPVEEEDAATYYCQHSRELPFTFGSGTKLEIKGGGGSGGGGSDYKDDDDKGGGGSC
notes: Full scFv-FLAG tagged with an extra C-terminal cys residue
In general, Kd refers to the equilibrium constant for the complex coming apart. As to B1, the equilibrium dissociation constant (Kd) was above 10 nM.

B2: L112-CD45 scFv (scFv)
scFv: EVQLVESGGDLVQPGRSLKLSCVASGFTFNNYWMTWIRQVPGKGLEWVASISSSGGSIYYPDSVKDRFTISRDNAKNTLFLQMNSLRSEDTATYYCARLYYYSGGGDAWGQGTSVTVSSGGGGSGGGGSGGGGSGGGGDIQMTQSPSFLSASVGDRVTIICKASQDINKYLDWYQQKLGEAPKLLIYNTNNLHTGIPSRFSGSGSGTDYTLTISSLQPEDVATYFCLQHISRWTFGGGTKLELKGGGGSGGGGSDYKDDDDKGGGGSC
notes: as for B1
Turning to B2, the Kd was above 10 nM.

B3: L111-CD45 scFv (scFv)
scFv: DIQMTQSPSFLSASVGDRVTINCKASQNINKYLDWYQQKHGEAPKLLIHYTNNLHTGIPSRFSGSGSGTDYTLTISSLQPEDVATYFCLQHSSRWTFGGGTKLELKGGGGSGGGGSGGGGSGGGGEVQLVESGGDLVQPGRSLKLSCIASGFTFTNFWMTWIRQVSGKGLEWVASISSSGGSIYYPDSVKDRFTISRDNAKNTLYLQMNSLRSEDTATYYCVKLHYYSGGGDAWGQGTSVTVSSGGGGSGGGGSDYKDDDDKGGGGSC
notes: Full scFv-FLAG tagged with an extra C-terminal cys residue; also called L11I-CD45; LIII-CD45 scFv
As to B3, the Kd is above 10 nM.
